According to paper PMC8882607 (Journal of Molecular Biology, 2022):

Target: NTF2-like domain of human G3BP1 (residues 1-139) (human, UniProt Q13283 1-139)
Experiment: ITC

Chain of NTF2-like domain of human G3BP1 (residues 1-139) (Q13283 1-139): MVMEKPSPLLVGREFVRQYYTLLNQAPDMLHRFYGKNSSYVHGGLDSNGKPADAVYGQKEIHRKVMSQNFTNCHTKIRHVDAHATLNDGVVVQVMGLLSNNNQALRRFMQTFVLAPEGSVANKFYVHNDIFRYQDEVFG

MSDNGPQNQRNAPRITFGGPSDSTG [SARS-CoV-2 N_(1–25) peptide (residues 1-25 of the N protein)]
dH: -17.6 kcal/mol
